Laboratory results from patent US20130171163A1 (published 2013).

B1: VEGFR3 (receptor, human, UniProt P35916 25-1363, looked up)
chain: YSMTPPTLNITEESHVIDTGDSLSISCRGQHPLEWAWPGAQEAPATGDKDSEDTGVVRDCEGTDARPYCKVLLLHEVHANDTGSYVCYYKYIKARIEGTTAASSYVFVRDFEQPFINKPDTLLVNRKDAMWVPCLVSIPGLNVTLRSQSSVLWPDGQEVVWDDRRGMLVSTPLLHDALYLQCETTWGDQDFLSNPFLVHITGNELYDIQLLPRKSLELLVGEKLVLNCTVWAEFNSGVTFDWDYPGKQAERGKWVPERRSQQTHTELSSILTIHNVSQHDLGSYVCKANNGIQRFRESTEVIVHENPFISVEWLKGPILEATAGDELVKLPVKLAAYPPPEFQWYKDGKALSGRHSPHALVLKEVTEASTGTYTLALWNSAAGLRRNISLELVVNVPPQIHEKEASSPSIYSRHSRQALTCTAYGVPLPLSIQWHWRPWTPCKMFAQRSLRRRQQQDLMPQCRDWRAVTTQDAVNPIESLDTWTEFVEGKNKTVSKLVIQNANVSAMYKCVVSNKVGQDERLIYFYVTTIPDGFTIESKPSEELLEGQPVLLSCQADSYKYEHLRWYRLNLSTLHDAHGNPLLLDCKNVHLFATPLAASLEEVAPGARHATLSLSIPRVAPEHEGHYVCEVQDRRSHDKHCHKKYLSVQALEAPRLTQNLTDLLVNVSDSLEMQCLVAGAHAPSIVWYKDERLLEEKSGVDLADSNQKLSIQRVREEDAGRYLCSVCNAKGCVNSSASVAVEGSEDKGSMEIVILVGTGVIAVFFWVLLLLIFCNMRRPAHADIKTGYLSIIMDPGEVPLEEQCEYLSYDASQWEFPRERLHLGRVLGYGAFGKVVEASAFGIHKGSSCDTVAVKMLKEGATASEHRALMSELKILIHIGNHLNVVNLLGACTKPQGPLMVIVEFCKYGNLSNFLRAKRDAFSPCAEKSPEQRGRFRAMVELARLDRRRPGSSDRVLFARFSKTEGGARRASPDQEAEDLWLSPLTMEDLVCYSFQVARGMEFLASRKCIHRDLAARNILLSESDVVKICDFGLARDIYKDPDYVRKGSARLPLKWMAPESIFDKVYTTQSDVWSFGVLLWEIFSLGASPYPGVQINEEFCQRLRDGTRMRAPELATPAIRRIMLNCWSGDPKARPAFSELVEILGDLLQGRGLQEEEEVCMAPRSSQSSEEGSFSQVSTMALHIAQADAEDSPPSLQRHSLAARYYNWVSFPGCLARGAETRGSSRMKTFEEFPMTPTTYKGSVDNQTDSGMVLASEEFEQIESRHRQESGFSCKGPGQNVAVTRAHPDSQGRRRRPERGARGGQVFYNSEYGELSEPSEEDHCSPSARVTFFTDNSY
notes: Endogenous protein in HUVEC lysates, with or without VEGF treatment (20 ng/ml, 10 min)

Columns and labels:
[1] = biological target: T1, leukocyte antigen-related protein tyrosine phosphatase (LAR) (human, UniProt P10586 30-1907, limits assumed); test: co-immunoprecipitation from HUVEC lysates with anti-cLAR antibody, Western blot with anti-VEGFR3
T1 construct: Endogenous protein in HUVEC lysates; The background section describes LAR as a non-covalent complex of a 150-kDa E subunit and an 85-kDa P subunit, cleaved from a 200-kDa proprotein; In the functional assays, full-length human LAR was overexpressed from adenovirus (AdLAR) or knocked down with siRNA; also called LAR PTP; leukocyte antigen-related (LAR) PTP
Description: (§1) C, Lysates from HUVECs stimulated with or without VEGF (20 ng/ml) for 10 min were immunoprecipitated with polyclonal antibodies against anti-cLAR or control goat IgG, followed by immunoblotting with anti-VEGFR2 (top), VEGFR3 (middle) or anti-cLAR antibody (bottom). D, Equal amounts of GST or GST-cLAR fusion protein were immobilized on glutathione-Sepharose beads and then incubated with HUVEC lysates containing equal amount of protein. GST or GST-cLAR-associated proteins were analyzed by Western blotting using anti-IGF-1Rβ antibody. The same membrane was reprobed with anti-GST antibody (E), anti-VEGFR2 (F, top) or anti-VEGFR3 (F, bottom) antibodies.

VEGFR3 = biological target: B1; test: GST pulldown from HUVEC lysates, Western blot with anti-VEGFR3
Description: as §1

VEGFR2 = biological target: T2, VEGFR2 (human, UniProt P35968 20-1356); test: GST pulldown from HUVEC lysates, Western blot with anti-VEGFR2
T2 construct: Endogenous protein in HUVEC lysates, with or without VEGF treatment (20 ng/ml, 10 min)
Description: as §1

T2 sequence (P35968 20-1356 limits assumed): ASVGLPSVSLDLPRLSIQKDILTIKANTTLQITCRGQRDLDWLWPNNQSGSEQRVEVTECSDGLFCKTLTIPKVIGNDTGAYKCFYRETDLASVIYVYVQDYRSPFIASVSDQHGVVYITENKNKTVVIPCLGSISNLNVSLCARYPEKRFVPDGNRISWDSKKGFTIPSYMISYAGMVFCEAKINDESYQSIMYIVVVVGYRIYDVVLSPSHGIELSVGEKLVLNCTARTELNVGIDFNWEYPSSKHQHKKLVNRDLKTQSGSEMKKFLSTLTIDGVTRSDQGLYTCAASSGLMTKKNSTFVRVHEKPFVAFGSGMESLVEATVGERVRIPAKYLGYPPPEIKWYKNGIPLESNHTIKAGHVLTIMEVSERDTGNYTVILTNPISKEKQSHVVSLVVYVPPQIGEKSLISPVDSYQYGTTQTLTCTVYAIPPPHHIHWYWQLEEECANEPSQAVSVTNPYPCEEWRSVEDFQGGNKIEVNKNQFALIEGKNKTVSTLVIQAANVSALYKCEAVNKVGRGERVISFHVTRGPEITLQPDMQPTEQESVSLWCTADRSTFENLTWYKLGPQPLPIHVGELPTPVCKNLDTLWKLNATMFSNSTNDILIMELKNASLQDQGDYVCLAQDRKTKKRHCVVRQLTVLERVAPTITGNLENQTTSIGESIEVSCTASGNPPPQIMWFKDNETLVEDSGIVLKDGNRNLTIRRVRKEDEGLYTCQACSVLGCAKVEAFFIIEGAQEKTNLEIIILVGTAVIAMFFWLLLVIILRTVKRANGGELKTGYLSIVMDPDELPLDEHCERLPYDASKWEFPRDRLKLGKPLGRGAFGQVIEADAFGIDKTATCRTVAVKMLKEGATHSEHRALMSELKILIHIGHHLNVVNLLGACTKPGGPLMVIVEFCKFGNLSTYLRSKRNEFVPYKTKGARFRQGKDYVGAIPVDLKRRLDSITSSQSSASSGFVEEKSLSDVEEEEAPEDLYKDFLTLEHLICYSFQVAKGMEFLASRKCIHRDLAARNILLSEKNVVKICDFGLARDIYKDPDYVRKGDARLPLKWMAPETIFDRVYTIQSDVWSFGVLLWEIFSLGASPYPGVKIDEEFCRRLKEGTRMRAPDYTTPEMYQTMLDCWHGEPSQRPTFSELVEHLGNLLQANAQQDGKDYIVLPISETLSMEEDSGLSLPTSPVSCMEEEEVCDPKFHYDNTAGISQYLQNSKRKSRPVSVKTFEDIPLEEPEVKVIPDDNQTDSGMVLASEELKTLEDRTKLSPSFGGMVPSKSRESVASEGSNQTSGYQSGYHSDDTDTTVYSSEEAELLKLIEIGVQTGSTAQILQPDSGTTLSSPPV

Row | Binder | binding result [1] | binding result (VEGFR3) | binding result (VEGFR2)
1 | B1 | no binding | – | –
2 | GST-cLAR fusion protein (other, UniProt P10586 1285-1907, looked up, domain: cytoplasmic LAR (cLAR); The fusion was immobilized on glutathione-Sepharose beads and incubated with HUVEC lysates; not shown: Glutathione-S-transferase (GST) tag) KRKRTHSPSSKDEQSIGLKDSLLAHSSDPVEMRRLNYQTPGMRDHPPIPITDLADNIERLKANDGLKFSQEYESIDPGQQFTWENSNLEVNKPKNRYANVIAYDHSRVILTSIDGVPGSDYINANYIDGYRKQNAYIATQGPLPETMGDFWRMVWEQRTATVVMMTRLEEKSRVKCDQYWPARGTETCGLIQVTLLDTVELATYTVRTFALHKSGSSEKRELRQFQFMAWPDHGVPEYPTPILAFLRRVKACNPLDAGPMVVHCSAGVGRTGCFIVIDAMLERMKHEKTVDIYGHVTCMRSQRNYMVQTEDQYVFIHEALLEAATCGHTEVPARNLYAHIQKLGQVPPGESVTAMELEFKLLASSKAHTSRFISANLPCNKFKNRLVNIMPYELTRVCLQPIRGVEGSDYINASFLDGYRQQKAYIATQGPLAESTEDFWRMLWEHNSTIIVMLTKLREMGREKCHQYWPAERSARYQYFVVDPMAEYNMPQYILREFKVTDARDGQSRTIRQFQFTDWPEQGVPKTGEGFIDFIGQVHKTKEQFGQDGPITVHCSAGVGRTGVFITLSIVLERMRYEGVVDMFQTVKTLRTQRPAMVQTEDQYQLCYRAALEYLGSFDHYAT | – | no binding | no binding
